# Results as given in publication PMC3683571 (2013).
# Where no end group is shown, it is not given here.
# Biological target: PSMA (Homo sapiens, UniProt Q04609)
# Assay: electrochemical impedance spectroscopy
binder,measurement,value
SECVEVFQNSCDW (cysteine pairing not given here; also: displayed on M13 phage) [phage-2 (phage-displayed peptide 2)],Kd,0.054 µM
